Assay results published in paper PMC2933323 (Nature structural & molecular biology, 2010).

Tests used:
[1] = target: Rb expressed from CMV-Rb in Saos-2 cells (UniProt P06400); assay: co-IP
[2] = target: endogenous Rb of CV-1 cells (African green monkey (endogenous in CV-1)); assay: co-IP
[3] = target: catalytic subunit of protein phosphatase 1 (PP1c), α isoform (human, UniProt P62136 1-300); assay: ITC
[4] = target: catalytic subunit of protein phosphatase 1 (PP1c), α isoform (human) (UniProt P62136)
Sequence of catalytic subunit of protein phosphatase 1 (PP1c), α isoform (human) (P62136 1-300): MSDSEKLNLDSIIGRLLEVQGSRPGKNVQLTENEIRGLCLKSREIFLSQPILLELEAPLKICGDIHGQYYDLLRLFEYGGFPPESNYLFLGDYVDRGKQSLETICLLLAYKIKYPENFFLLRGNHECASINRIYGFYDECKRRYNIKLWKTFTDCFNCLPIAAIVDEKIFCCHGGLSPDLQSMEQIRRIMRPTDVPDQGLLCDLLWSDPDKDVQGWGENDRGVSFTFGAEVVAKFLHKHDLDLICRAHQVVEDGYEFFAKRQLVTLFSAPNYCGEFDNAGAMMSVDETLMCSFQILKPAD

Molecule: PP1 in transfected Saos-2 cells (exogenous myc-PP1c together with endogenous PP1) (from UniProt P62136 1-330) (enzyme)
- PP1 co-precipitated, percent of the immunoprecipitated Rb [1]: 30%

Molecule: endogenous PP1 of CV-1 cells (enzyme)
- PP1 co-precipitated, percent of the immunoprecipitated Rb [2]: 2%

Molecule: KPLKKLRFDIEGS [Rb^870–882 peptide]
- Kd [3]: 1200 nM

B1: phosRb^771–928 (domain or fragment)
chain: YASTRPPTLSPIPHIPRSPYKFPSSPLRIPGGNIYISPLKSPYKISEGLPTPTKMTPRSRILVSIGESFGTSEKFQKINQMVCNSDRVLKRSAEGSNPPKPLKKLRFDIEGSDEADGSKHLPGESKFQQKLAEMTSTRTRMQKQKMNDSMDTSNKEEK
- apparent KM of dephosphorylation by PP1c (steady-state analysis) [4]: 6 µM

B2: phosRb^771–874 (domain or fragment)
chain: YASTRPPTLSPIPHIPRSPYKFPSSPLRIPGGNIYISPLKSPYKISEGLPTPTKMTPRSRILVSIGESFGTSEKFQKINQMVCNSDRVLKRSAEGSNPPKPLKK
- apparent KM of dephosphorylation by PP1c (steady-state analysis) [4]: 30 µM
